US12618081B2, “Brown marmorated and harlequin stink bug pheromone enzyme synthesis and uses thereof” (VIRGINIA TECH INTELLECTUAL PROPERTIES, INC., priority 2019, dated 2026)

Legend:
H. halys = conditions: added to a trap containing the two principle components of the H. halys pheromone; cited from earlier work
[1] = IDS (prenyltransferase) activity assay of recombinant M. histrionica proteins, LC-MS/MS; format: biochemical, Murgantia histrionica; conditions: IPP and DMAPP as substrates
Experimental: (§1) For enzyme assays, 96 μl of partially purified protein were mixed with 2 μl 50 μM isopentenyl diphosphate (IPP; Sigma) and 2 μl 50 μM dimethylallyl diphosphate (DMAPP; Sigma) and incubated at 30° C. for 2 h. Analysis of IDS enzyme products was done using an Agilent 1260 HPLC system (Agilent Technologies) coupled to an API 5000 triple-quadrupole mass spectrometer (AB Sciex Instruments) according to the protocol described by Beran et al. (Beran et al., 2016).

[2] = Kinetic analysis of E. coli expressed MhTPS with [1-3H]-(E,E)-FPP; format: biochemical, Murgantia histrionica; conditions: (E,E)-FPP as the substrate
Experimental: (§2) Assays with heterologously expressed protein were performed in assay buffer (see above) in a total volume of 250 μl with partially purified protein, 1 mM DTT, and 50 µM allylic substrate [(E,E)-, (Z,E)- or (Z,Z)-FPP] and incubated at 30° C. for 1 h with a 250 μL hexane overlay. Assays were stopped on ice and compounds extracted by mixing (vortex) at maximum speed for . . . 15 sec. Phases were separated by centrifugation at 4000×g for 10 min and the hexane phase was removed and dried over MgSO4 One μl of liquid sample was injected in splitless mode and analyzed by GC-MS. For identification of the MhTPS product, assays were scaled up by incubating 1 mL protein in a 7 mL screw top test tube and the obtained hexane extract was used for further analysis. To determine enzyme kinetic parameters, assays were performed in a final volume of 50 μL with 0.3 μg partially purified, E. coli expressed MhTPS enzyme and increasing concentrations of [1-3H]-(E,E)-FPP (64 uCi mmol-1). Assays were incubated in triplicate at 30° C. for 5 min prior to extraction of the reaction product with 250 μl hexane. Quantification of the radioactive product were as described by Tholl et al. (Tholl et al., 2005). Calculation of Km and Vmax values was performed by rectangular hyperbolic regression analysis using the Hyperbolic Regression Analysis (HYPER 1.01) software (J. S. Easterby, University of Liverpool).

[3] = TPS activity assay of recombinant M. histrionica IDS-like proteins, GC-MS of hexane extracts; format: biochemical, Murgantia histrionica
Experimental: as §2
(§3) GC-MS analysis was performed by liquid injection at 240° C. running in split 5 mode and separated on a GC-2010 gas chromatograph (Shimadzu, Kyoto, Japan) using a 30 m×0.25 mm i.d.×0.25 μm film Zebron ZB-XLB column coupled with a QP2010S mass spectrometer (Shimadzu). The GC program was as follows: 40° C. with 2 min hold, then raised to 220° C. at 5° C./min, then raised to 240° C. at 70° C./min followed by a 2 min hold time. Mass spectrometry was performed with an ion source temperature of 240° C., interface temperature of 280° C., electron ionization (EI) potential of 70 eV and scan range of 50 to 400 atomic mass units. Helium was used as a carrier gas at 1.9 mL/min. Terpene olefin products were identified by comparison of retention times and mass spectra with those of authentic standards.

[4] = TPS activity assay of recombinant H. halys IDS-like proteins, GC-MS; format: biochemical, Halyomorpha halys
Experimental: Assays with heterologously expressed protein were performed in assay buffer (see above) in a total volume of 100 μl with partially purified protein, 1 mM DTT, and 50 μM allylic substrate [(E,E)-, (Z,E)- or (Z,Z)-FPP] and incubated at 30° C. for 1 h with a 100 μL hexane overlay. Assays were stopped on ice and compounds extracted by mixing (vortex) at maximum speed for 15 sec. Phases were separated by centrifugation at 4000×g for 10 min and the hexane phase was removed and dried over MgSO4. One μl of liquid sample was injected in splitless mode and analyzed by GC-MS.
as §3

[5] = IDS activity assay of recombinant H. halys HhIDS2, LC-MS; format: biochemical, Halyomorpha halys; conditions: IPP and DMAPP
Experimental: as §1, with “μl […] dimethylallyl diphosphate” for “μl 50 μM dimethylallyl diphosphate”, “et al. (2016).” for “et al. (Beran et al., 2016).”

For CCC\C=C/C=C/C=C/C(=O)OC [MDT, methyl (E,E,Z)-2,4,6-decatrienoate], the “increase in captured bugs” value (H. halys) is listed as 70%.

B1: MhTPS1: IDS-type sesquiterpene (sesquipiperitol) synthase of Murgantia histrionica, 385 aa, GenBank MG662378, SEQ ID NO: 1 (protein)
chain: MVSIAAKSLPKLSGAVFGQFSRRKQLIQRHWLDTRTDQYYDVLRRIVVPECKNIASDVPEYPERIEKLLYYTNPAFSDAWNFTTELIYRTVADESHQTEENITKMYLIRATMDLLFTMSAVLDDISDRSEFRKGKKGWHMICQGGESTALYDGTQMGLFPLYLLKQYFKNDPGYSRLLETVVMTYIKLTIGQTIDVLGQFKKSPSMAEYKRINYYKAGQFVAAGSELAVIHAGITSQDLIDKTVEIFTIAGQIIQTWDDFNDYYSSSEQNGKLSCDFMNAGTTWVSAKAMEVFTPSQAVKFMECYGSDDQSKMKTVQELYDEIDMPKLYTEYVLENYNRCETLIKELPHDRLREACSSYMEWLVVRETPDEDSEHKVALCLNISG
modifications: Murgantia histrionica “harlequin bug” Terpene Synthase (TPS)
In the case of B1, the “IDS activity: formation of FPP” value [1] is reported as “not observed”, the Vmax [2] is reported as 675.3±53.7 pkat/mg and the kcat [2] is reported as 0.03 ± 0.003 s⁻¹. The Km ([2]; read-out: apparent Km) was 4 ± 0.7 µM, the “sesquiterpene synthase activity, product” value ([3]; (E,E)-FPP as a substrate, N-terminal His-tag, E. coli) was “a terpene alcohol as its main product” and the “pH of highest activity” value ([3]; (E,E)-FPP as substrate) was 7. The sesquipiperitol production ([3]; (Z,E)-FPP as substrate) was “at lower levels”, the enzymatic activity ([3]; (Z,Z)-FPP as the substrate) was “almost no enzymatic activity” and the “conversion of GPP, products” value ([3]; GPP as substrate) was “several monoterpene olefins”. For the same molecule, the “increase of activity (relative amount of sesquipiperitol)” value ([3]; between 0.1 and 10 mM Mg^2+, (E,E)-FPP as substrate) was “approximately 2 fold” and the “formation of terpene products” value ([3]; incubated with IPP and DMAPP) was “no formation of terpene products”.

B2: HhIDS2: bona fide IDS enzyme of Halyomorpha halys making (E,E)-FPP, 403 amino acids, GenBank MG870389 (protein)
chain: MPFAKLCVQKLSNPLMKLCYPNLNGRLSLSKFSNSLDNSTFKFLSCNPHTICREHNTVAIRPQTITKDDKRDFMAVFPDIVRDLTQQDPGISDLSTLISKLMQYNVSGGKKVRGLTVVYSYRMLAPDHDLTPENIRLAQILGWCVEMLQGFFVVIDDLTDQSVTRRGRPCWYRLPGIGLRASSDALLIQAGTFQLLQQHCKDKEFYVDLVELFLDATRRTTYGQTLDLVSSFPNITHLTMDRYNFITKYKTSYYTFHLPVAIAMYMAGIYNTELHRQAKSVLLEMGHYFQVQDDYLDVFSDEEVSGKKGTDIQEGKCTWLAIIAFQRASPSQREILESCYGSKDPEKIQKVKDIFIEIGLPAVFHAYEEETYNLITRQIQQLSEGLPHELFLTLLHKMYGRKQ
modifications: HhFPPS
notes: bona fide IDS enzyme of Halyomorpha halys making (E,E)-FPP, 403 amino acids, GenBank MG870389
In the case of B2, the terpene product formation ([4]; FPP isomers as substrate) is reported as “did not produce a terpene product” and the “IDS activity: product” value [5] is reported as “only (E,E)-FPP”.

B3: HhIDS1: IDS-type sesquiterpene synthase of Halyomorpha halys, 377 amino acids, main product elemol, GenBank MG917093 (protein)
chain: MIPKTLGNFTGYVLRIALNKKHVNVRHKLDTDIGKYYQTLNDVVIPECMEFVKDAQGLPQRMKECIGYTTPYCYEGWNFCVELLYKTVADKPHQTEENLKKMRILRVLSDMSHSMHFILDDYADKAEFRQGKKIWASICEGGQEAAIYDTFTVNYLINCMLQRHFRNDPGFTKMCEMFSWVNGNSGIGQVLDILDHKNSDFSDYASWKNKVEYKSRNTMCAFPVLGLLHAGLTCNDLIHKTMDIFGDYGLMFQVWNDFMDFYSVQEESGKGNYDCKNNVKTWATITAMSHFNPAQAKEFRDCYGTNDPAKRSRVRELFDEIDLPRKYLDYLRNIRVTVEKKISELSDARVRDASTSYLEWLHGNGHHDVELEILKAP
modifications: HhTPS2
notes: IDS-type sesquiterpene synthase of Halyomorpha halys, 377 amino acids, main product elemol, GenBank MG917093
In the case of B3, the sesquiterpene products ([4]; either (E,E)-FPP or (Z,E)-FPP as substrates) is reported as “several sesquiterpene olefins and alcohols at low abundance”.
